Test results taken from patent US12697350B2, “Methods and compositions for treating a premature termination codon-mediated disorder” (Tevard Biosciences, Inc., priority 2019, dated 2026).
Entries after “also recorded” stand apart in the source; their conditions may differ.

Tested on: mouse SCN1A with an Arg(R)-to-TGA PTC (R1407X) and 3×FLAG tag
Test: Rescue of full-length SCN1A protein expression, anti-FLAG Western blot, Flp-In-293 cells (FIGS. 37-39)
Type: cell-based, human
Excerpt: FIG. 37A is a Western blot depicting rescue of full-length SCN1A protein expression by a suppressor tRNA. Flp-In-293 cells were transfected with an expression construct containing mouse SCN1A with an Arg(R)-to-TGA PTC (R1407X) and a 3×FLAG tag peptide (DYKDHD-G-DYKDHD-I-DYKDDDDK) at the C-terminus (SEQ ID NO: 899) (“SCN1a (R1407*)”) and either (i) co-transfected with an expression construct containing the ArgTCA suppressor tRNA #115 (SEQ ID NO: 18) (“Arg>TGA #115”), or (ii) treated with ataluren at the indicated concentration, (iii) treated with gentamicin at the indication concentration, or (iv) treated with G418 at the indicated concentration. “SCN1a (w.t.)” indicates cells transfected with an expression construct containing wild-type mouse SCN1A and a 3×FLAG tag peptide at the C-terminus (SEQ ID NO: 898). Protein was isolated at 24 hours post transfection and SCN1A was detected using a monoclonal anti-FLAG M2 antibody. Molecular weights based on protein molecular weight markers are indicated to the left of the gel. The intensity of bands corresponding to the size of full-length SCN1A protein was measured using ImageJ and all intensity values were normalized to wild-type SCN1A protein (“SCN1a (w.t.)” lane). Cells co-transfected with expression vectors containing mutant SCN1A and the ArgTCA suppressor tRNA expressed greater than 70% of the full-length SCN1A expressed by cells transfected with an expression construct containing wild-type SCN1A.
FIG. 38A is a Western blot depicting rescue of full-length SCN1A protein expression by suppressor tRNAs. Flp-In-293 cells were co-transfected with (i) an expression construct containing mouse SCN1A with an Arginine-to-TGA PTC (R1407X) and a 3×FLAG tag peptide (DYKDHD-G-DYKDHD-I-DYKDDDDK) at the C-terminus (SEQ ID NO: 899) (“SCN1a (R1407*)”) and (ii) either the #104 ArgTCA suppressor tRNA (SEQ ID NO: 6) (“Sup #104”), the #106 ArgTCA suppressor tRNA (SEQ ID NO: 8) (“Sup #106”), or the ArgTCA suppressor tRNA #115 (SEQ ID NO: 18) (“Sup #115”). “SCN1a (w.t.)” indicates cells transfected with an expression construct containing wild-type mouse SCN1A and a 3×FLAG tag peptide at the C-terminus (SEQ ID NO: 898). Protein was isolated at 24 hours post transfection and SCN1A was detected using a monoclonal anti-FLAG M2 antibody. Molecular weights based on protein molecular weight markers are indicated to the left of the gel. The intensity of bands corresponding to the size of full-length SCN1A protein was measured using ImageJ and all intensity values were normalized to wild-type SCN1A protein (“SCN1a (w.t.)” lane). Cells co-transfected with expression vectors containing mutant SCN1A and the ArgTCA suppressor tRNA expressed greater than 30% (Sup #104), greater than 60% (Sup #106), or greater than 70% (Sup #115) of the full-length SCN1A expressed by cells transfected with an expression construct containing wild-type SCN1A.
FIG. 39A is a Western blot depicting rescue of full-length SCN1A protein expression by a suppressor tRNA. Flp-In-293 cells were cultured in 6-well cell culture plates and co-transfected with (i) an expression construct containing mouse SCN1A with an Arginine-to-TGA PTC (R1407X) and a 3×FLAG tag peptide (DYKDHD-G-DYKDHD-I-DYKDDDDK) at the C-terminus (SEQ ID NO: 899) (“SCN1a (R1407*)”) and (ii) the ArgTCA suppressor tRNA #115 (SEQ ID NO: 18) (“Arg>TGA #115”) at the indicated concentrations. 1× indicates 400 ng of the ArgTCA suppressor tRNA construct per well, 0.3× indicates 133 ng of the ArgTCA suppressor tRNA construct per well, 0.1× indicates 40 ng of the ArgTCA suppressor tRNA construct per well, and 0.03× indicates 13 ng of the ArgTCA suppressor tRNA construct per well. “SCN1a (w.t.)” indicates cells transfected with an expression construct containing wild-type mouse SCN1A and a 3×FLAG tag peptide at the C-terminus (SEQ ID NO: 898). Protein was isolated at 24 hours post transfection and SCN1A was detected using a monoclonal anti-FLAG M2 antibody. […]

B1: tRNA-Arg-TCT-2-1-TCA-SUP_no intron (nucleic acid)
chain: GGCTCCGTGGCGCAATGGATAGCGCATTGGACTTCAAATTCAAAGGTTCCGGGTTCGAGTCCCGGCGGAGTCG
modifications: chemistry not fully specified
In the case of B1, the “rescue of full-length SCN1A protein expression over dose range” value (13 to 400 ng suppressor tRNA construct per well, 6-well plate (FIG. 39)) is reported as “able to rescue full-length SCN1A protein expression over a broad dose range”, the “full-length SCN1A expressed, relative to cells transfected with wild-type SCN1A construct” value (Flp-In-293, 24 hours post transfection, Western blot band intensity (ImageJ) normalized to wild-type SCN1A) is reported as “greater than 70%” and the “rescue of full-length SCN1A protein expression” value (Flp-In-293, SCN1A R1407X-3×FLAG, Western blot, 24 hours post transfection) is reported as “able to rescue full-length SCN1A protein expression; also recorded: rescued full-length SCN1A protein expression”.
